Measurements: article PMC7080818

Legend:
[1] = molecular target: 3xFLAG-KSHV-ORF64, N-terminal catalytic domain of the KSHV large tegument protein (Kaposi Sarcoma herpesvirus (KSHV)) (UniProt Q2HR64)
[2] = molecular target: 3xFLAG-HCMV-UL48, N-terminal catalytic domain of the HCMV large tegument protein (human cytomegalovirus (HCMV)) (UniProt P16785)
[3] = molecular target: 3xFLAG-BPLF1 (amino acid residues 1-235), N-terminal catalytic domain of the EBV large tegument protein (Epstein-Barr virus (EBV)) (UniProt P03186)
Chain of UniProt P03186 (P03186 1-235): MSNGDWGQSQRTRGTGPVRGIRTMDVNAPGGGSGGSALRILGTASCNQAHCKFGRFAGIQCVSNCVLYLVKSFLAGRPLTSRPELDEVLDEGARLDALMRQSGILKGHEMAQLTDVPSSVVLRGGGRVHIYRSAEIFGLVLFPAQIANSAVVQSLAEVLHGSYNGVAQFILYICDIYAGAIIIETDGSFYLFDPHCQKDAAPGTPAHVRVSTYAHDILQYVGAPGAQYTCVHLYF

Chain of UniProt Q2HR64 (Q2HR64 1-300): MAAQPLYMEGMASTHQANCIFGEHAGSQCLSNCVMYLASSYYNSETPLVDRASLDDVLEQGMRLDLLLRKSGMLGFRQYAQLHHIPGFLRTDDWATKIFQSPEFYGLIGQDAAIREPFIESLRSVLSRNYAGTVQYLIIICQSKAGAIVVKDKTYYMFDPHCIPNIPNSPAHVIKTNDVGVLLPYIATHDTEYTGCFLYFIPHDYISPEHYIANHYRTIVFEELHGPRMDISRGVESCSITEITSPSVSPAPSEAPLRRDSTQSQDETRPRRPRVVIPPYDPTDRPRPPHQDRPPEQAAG
Chain of UniProt P16785 (P16785 1-300): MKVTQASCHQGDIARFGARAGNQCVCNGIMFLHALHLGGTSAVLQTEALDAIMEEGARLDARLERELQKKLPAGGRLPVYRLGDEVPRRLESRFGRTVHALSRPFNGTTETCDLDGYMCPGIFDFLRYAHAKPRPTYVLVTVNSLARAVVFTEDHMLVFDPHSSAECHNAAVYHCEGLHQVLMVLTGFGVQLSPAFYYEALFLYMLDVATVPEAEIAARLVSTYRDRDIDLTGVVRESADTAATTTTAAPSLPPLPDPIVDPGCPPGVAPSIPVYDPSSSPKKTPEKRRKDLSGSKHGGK

Substance: 14-3-3 molecular scaffold (endogenous, detected with a pan 14-3-3 antibody) (from UniProt P63104 1-245) (natural protein)
- mono-ubiquitination of co-transfected HA-TRIM25 (western blot, densitometry), percent mono-ubiquitinated TRIM25 [1]: > 70%
- mono-ubiquitination of co-transfected HA-TRIM25 (western blot, densitometry), percent mono-ubiquitinated TRIM25 [2]: > 70%
- inhibition of IRF3 nuclear translocation in RIG-I-2CARD positive HeLa cells [3]: > 50%
